Test results: publication PMC5686756, “IKKγ-Mimetic Peptides Block the Resistance to Apoptosis Associated with Kaposi's Sarcoma-Associated Herpesvirus Infection” (Journal of Virology, 2017)

Target: ks-vFLIP (purified, thermofluor assay) (Kaposi's sarcoma-associated herpesvirus (KSHV)) (UniProt Q76RF1)
Test: thermofluor (thermal shift); 30 μM ks-vFLIP combined with IKKγ or mimetic peptides, SYPRO orange 1:1,000, 96-well plate, thermal denaturation

Chain of unmodified IKKγ 30-mer peptide (residues 224 to 253) (Q9Y6K9 224-253): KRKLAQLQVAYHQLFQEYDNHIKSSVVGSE
Chain of IKKγ fragment encompassing residues 150 to 272 (Q9Y6K9 150-272): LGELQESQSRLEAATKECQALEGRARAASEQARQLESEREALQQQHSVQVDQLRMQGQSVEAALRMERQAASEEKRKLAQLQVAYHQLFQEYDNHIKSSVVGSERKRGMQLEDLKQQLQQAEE

Substance	shift in melting temperature at 30 μM	shift in melting temperature at 100 μM
IKKγ fragment encompassing residues 150 to 272 (from UniProt Q9Y6K9 150-272) (domain or fragment)	8 °C	
unmodified IKKγ 21-mer peptide (residues 226 to 248) (from UniProt Q9Y6K9 226-248)		4 °C
unmodified IKKγ 30-mer peptide (residues 224 to 253) (from UniProt Q9Y6K9 224-253)		4 °C
